What was measured:
[1] = molecular target: T1, von Willebrand factor (VWF) (Homo sapiens, UniProt P04275 P04275:764-2813); experiment: filter; Bmax 78%; 2 mM CaCl2, 37 C; conditions: tags: factor VIII free, Haematologic Technologies Inc; label: 5'-32P
Description: (§1) Affinity constants (Kd values) were determined using double-filter nitrocellulose filter binding assays (Rusconi et al, Thromb. Haemost. $4:841-848 (2000)). All binding studies were performed in binding buffer F (20 mM HEPES, pH 7.4, 150 mM NaCl, 2 mM CaCl₂, and 0.01% BSA) at 37° C. Human purified VWF (factor VIII free) was purchased from Haematologic Technologies Inc. (Essex Junction, Vt.) and used in the double-filter nitrocellulose filter binding assay to determine the Kd of the aptamers. Briefly, RNA were end-labeled at the 5′ end with T4 polynucleotide kinase (New England Biolabs, Beverly, Mass.) and [γ³²P] ATP (Amersham Pharmacia Biotech, Piscataway, N.J.) (Fitzwater and Polisky, Methods Enzymol. 267:275-301 (1996)). End-labeled RNA was diluted in binding buffer F, heat denatured at 65° C. for 5 minutes, and subsequently equilibrated at 37° C. Direct binding was performed by incubating trace ³²P-RNA with varying concentrations of VWF protein in binding buffer F at 37° C. for 5 min. The fraction of the nucleic acid-protein complex which bound to the nitrocellulose membrane was quantified with a phosphorimager (Molecular Dynamics, Sunnyvale, Calif.). Non-specific binding of the radiolabeled nucleic acid was subtracted out of the binding such that only specific binding remained (Wong and Lohman, Proc. Natl. Acad. Sci. USA 90:5428-5432 (1993)).

[2] = molecular target: T1, von Willebrand factor (VWF); experiment: filter; Bmax 76%; 2 mM CaCl2, 37 C; conditions: Haematologic Technologies Inc, label: 5'-32P
Description: as §1

[3] = molecular target: T1, von Willebrand factor (VWF); experiment: filter; NB; 2 mM CaCl2, 37 C; conditions: Haematologic Technologies Inc, label: 5'-32P
Description: as §1

[4] = molecular target: T1, von Willebrand factor (VWF); experiment: filter; Bmax 85%; 2 mM CaCl2, 37 C; conditions: Haematologic Technologies Inc, label: 5'-32P
Description: as §1

[5] = molecular target: T1, von Willebrand factor (VWF); experiment: filter; Bmax 77%; 2 mM CaCl2, 37 C; conditions: Haematologic Technologies Inc, label: 5'-32P
Description: as §1

[6] = molecular target: T1, von Willebrand factor (VWF); experiment: filter; NB; loop CAGA mutated; 2 mM CaCl2, 37 C; conditions: tags: factor VIII free, Haematologic Technologies Inc; label: 5'-32P
Description: as §1

[7] = molecular target: T1, von Willebrand factor (VWF); experiment: filter; Bmax 61%; 2 mM CaCl2, 37 C; conditions: tags: factor VIII free, Haematologic Technologies Inc; label: 5'-32P
Description: as §1

[8] = tags: factor VIII free human purified VWF

B1: T25 vrt16 (ssRNA)
RNA: ACGAACUGCCCUCAGCUACUUUCAUGUUGCUGACGCACAGACGU
modifications: rAfCmGrArAfCfUrGfCfCfCfUfCrArGfCfUrAfCfUfUfUfCrAfUrGfUfUrGfCfUrGrAfCrGfCrAfCrArGrAmCrGfU-idT
B1 gave a Kd [1] of 4.3 nM.

In the case of ACGAACUGCCCUCGAUCGACGCACAGACGU (ssRNA, 2'-F C10,C11,C20,C22,U30; ribo G21; rest 2'-OMe; 3' idT) [T59 vrt29], the Kd [2, 8] is reported as 19 nM.

ACGAACUGCCCUCGAUCGACGCACAGACGU (ssRNA, rAfCrGmAmAmCfUrGfCfCfCfUmCmGmAmUmCmGrAfCrGfCrAmCmAmGmAfCrGfU-idT) [T59 vrt1] showed a Kd ([2]; tags: factor VIII free) of 1.5 nM.

GGGAGGUCAGCUACUUUCAUGUUGCUGA (ssRNA, 2'-F C and U; 2'-OH A and G) [T14]: no binding ([3]; tags: factor VIII free).

For ACGAACUGCCCUCGUAUUAUUUCGACGCACAGACGU (ssRNA, 2'-F C9,C10,C11,C26,C28; ribo G27; rest 2'-OMe; 3' idT) [T89 vrt4], the Kd [4, 8] was 8.4 nM.

For ACGAACUGCCCUCGAUCGACGCACAGACGU (ssRNA, 2'-F U7,C9,C10,C11,U12,C20,C22,U30; ribo G21; rest 2'-OMe; 3' idT) [T59 vrt23], the Kd [5, 8] was 1.7 nM.

In the case of ACGAACUGCCCUCUAUUUCAUUUGACGCACAGACGU (ssRNA, 2'-F C and U; 2'-OH A and G; 3' idT) [T93], the Kd ([2]; tags: factor VIII free) is reported as 6.4 nM.

With ACGAACUGCCCUCUAUUUCAUUUGACGCACAGACGU (ssRNA, 2'-F C9,C10,C11,C26,G27,C28; rest 2'-OMe; 3' idT) [T93 vrt7] the Kd [2, 8] was 20 nM.

B2: T19 (ssRNA)
RNA: GGGAGGUGGACGAACUGCCCUCUUUCAUGUUGCUGACGCACAGACGACUCGCUG
modifications: 2'-F C and U; 2'-OH A and G
B2: no binding ([3]; tags: factor VIII free).

ACGACUGCCCUCAGCUACUUUCAUGUUGCUGACGCACACGU (ssRNA, 2'-F C and U; 2'-OH A and G; 3' idT) [T55]: no binding ([3]; tags: factor VIII free).

ACGAACUGCCCUCUUUCAUGACGCACCCCCGU (ssRNA, 2'-F C and U; 2'-OH A and G; 3' idT) [T98]: no binding [6].

ACGAACUGCCCUCUUUUUUGACGCACCCCCGU (ssRNA, 2'-F C and U; 2'-OH A and G; 3' idT) [T101]: no binding [6].

B3: T87 vrt1 (ssRNA)
RNA: ACGAACUGCCCUCUUUCAUGACGCACAGACGU
modifications: 2'-F C2,U7,C9,C10,C11,U12,C22,C24,C30,U32; ribo A1,G3,G8,A21,G23,A25,G31; rest 2'-OMe; 3' idT
B3 was tested, and the Kd [4, 8] was 1.5 nM.

ACGAACUGCCCUCGUUUCAUCGACGCACAGACGU (ssRNA, 2'-F C9,C10,C11,C24,G25,C26,U34; rest 2'-OMe; 3' idT) [T86 vrt6] showed a Kd [4, 8] of 52 nM.

B4: T20 (ssRNA)
RNA: GGGAGGUGGACGAACUGCCCUCUACUUUCAUGUUGACGCACAGACGACUCGCUG
modifications: 2'-F C and U; 2'-OH A and G
B4: no binding ([3]; tags: factor VIII free).

ACGAACUGCCCUCGAUUAUUCGACCACAGACGU (ssRNA, 2'-F C and U; 2'-OH A and G; 3' idT) [T67]: no binding ([3]; tags: factor VIII free).

ACGAACUGCCCUCGCGACGCACAGACGU (ssRNA, 2'-F C and U; 2'-OH A and G; 3' idT) [T58]: no binding ([3]; tags: factor VIII free).

ACGAACUGCCCUCGAUCGACGCACAGACGUUUUUU (ssRNA, mAmCmGmAmAmCmUmGfCfCfCmUmCmGmAmUmCmGmAfCfGfCmAmCmAmGmAmCmGfUmUmUmUmUmU-idT) [T79 vrt6] was tested, and the Kd [7] was 60.5 nM.

ACGAACUGCCCUACGCACAGACGU (ssRNA, 2'-F C and U; 2'-OH A and G; 3' idT) [T56]: no binding ([3]; tags: factor VIII free).

ACGAACUGCCCUCUUUUUUUUGACGCACCCCCGU (ssRNA, 2'-F C and U; 2'-OH A and G; 3' idT) [T96]: no binding [6].

ACGAACUGCCCUCUAUUAUUUGACGCACCCCCGU (ssRNA, 2'-F C and U; 2'-OH A and G; 3' idT) [T99]: no binding [6].

ACGAACUGCCCUCGUUUCAUCGACGCACCCCCGU (ssRNA, 2'-F C and U; 2'-OH A and G; 3' idT) [T97]: no binding [6].

With ACGAACUGCCCUCGAUCGACGCACAGACGUACCCG (ssRNA, 2'-F C and U; 2'-OH A and G; 3' idT) [T82] the Kd ([2]; tags: factor VIII free) was 5.3 nM.

ACGAACUGCCCUCGAUCGACGCACAGACGUACACG (ssRNA, 2'-F C9,C10,C11,C20,C22; ribo G21; rest 2'-OMe; 3' idT) [T84 vrt4] gave a Kd [5, 8] of 22 nM.

B5: T82 vrt1 (ssRNA)
RNA: ACGAACUGCCCUCGAUCGACGCACAGACGUACCCG
modifications: 2'-F C2,U7,C9,C10,C11,U12,C20,C22,C28,U30; ribo A1,G3,G8,A19,G21,A23,G29; rest 2'-OMe; 3' idT
With B5 the Kd [2, 8] was 3.8 nM.

With ACGAACUGCCCUCGAUCGACGCACAGACGUACACG (ssRNA, 2'-F C and U; 2'-OH A and G; 3' idT) [T84] the Kd ([2]; tags: factor VIII free) was 3.7 nM.

For ACGAACUGCCCUCGAUCGACGCACAGACGUAAAAA (ssRNA, 2'-F C and U; 2'-OH A and G; 3' idT) [T83], the Kd [7] was 3.5 nM.

With ACGAACUGCCCUCGAUCGACGCACAGACGUAAAAA (ssRNA, 2'-F C9,C10,C11,C20,C22; ribo G21; rest 2'-OMe; 3' idT) [T83 vrt4] the Kd [5, 8] was 20 nM.

Work on ACGAACUGCCCUCGAUCGACGCACAGACGU (ssRNA, rAfCrGmAmAmCfUrGfCfCfCfUmCmGmAmUmCmGrAfCmGfCrAmCmAmGmAfCrGfU-idT) [T59 vrt13] yielded a Kd ([2]; tags: factor VIII free) of 29 nM.

With ACGAACUGCCCUCGAUCGACGCACAGACGUAAA (ssRNA, 2'-F C and U; 2'-OH A and G; 3' idT) [T80] the Kd ([5]; tags: factor VIII free) was 6.3 nM.

ACGAACUGCUCGAUUAUUCGAGCACAGACGU (ssRNA, 2'-F C and U; 2'-OH A and G; 3' idT) [T66]: no binding ([3]; tags: factor VIII free).

For ACGAACUGCCCUCGCUACUUUCAUGUUGCGACGCACAGACGU (ssRNA, 2'-F C and U; 2'-OH A and G; 3' idT) [T34], the Kd [7] was 10 nM.

ACGAACUGCCCUCAGCUACUUUCAUGUUGCUGACGCACAACGU (ssRNA, 2'-F C and U; 2'-OH A and G; 3' idT) [T53]: no binding ([3]; tags: factor VIII free).

ACGAACUGCCCUCAGCUACUUUCAUGUUGCUGACGCACGACGU (ssRNA, 2'-F C and U; 2'-OH A and G; 3' idT) [T54]: no binding ([3]; tags: factor VIII free).

With ACGAACUGCCCUCGCACUUAUGUGCGACGCACAGACGU (ssRNA, 2'-F C and U; 2'-OH A and G; 3' idT) [T50] the Kd [7] was 9.6 nM.

GGGAGGUGGACGAACUGCCCUACGCACAGACGACUCGCUG (ssRNA, 2'-F C and U; 2'-OH A and G) [T17]: no binding ([3]; tags: factor VIII free).

ACGAAAUGGAAUCGUAAGAACCACAGACGUUUUUU (ssRNA, all 2'-OMe; 3' idT) [DTRI-022]: no binding [3, 8].

In the case of ACGAACUGCCCUCUAUUAUUUGACGCACAGACGU (ssRNA, 2'-F C and U; 2'-OH A and G; 3' idT) [T90], the Kd ([5]; tags: factor VIII free) is reported as 3.8 nM.

With ACGAACUGCCCUCUAUUAUUUGACGCACAGACGU (ssRNA, 2'-F C9,C10,C11,C24,C26; ribo G25; rest 2'-OMe; 3' idT) [T90 vrt4] the Kd [4, 8] was 10.2 nM.

ACGAACUGCCCUCGAUCGACGCACAGACGU (ssRNA, rAfCrGmAmAmCfUrGfCfCfCfUmCmGmAmUmCmGrAfCrGfCmAmCmAmGmAfCrGfU-idT) [T59 vrt12] was tested, and the Kd ([4]; tags: factor VIII free) was 6.9 nM.

ACGAACUGCCCUCGUUAUCGACGCACAGACGU (ssRNA, 2'-F C and U; 2'-OH A and G; 3' idT) [T71] was tested, and the Kd ([5]; tags: factor VIII free) was 10 nM.

B6: T13 (ssRNA)
RNA: GGGAGGUGCCCUCAGCUACUUUCAUGUUGCUGACGCACAGACGACUCGCUG
modifications: 2'-F C and U; 2'-OH A and G
B6: no binding ([3]; tags: factor VIII free).

Work on ACGAACUGCCCUCGAUCGACGCACAGACGU (ssRNA, 2'-F U7,C9,C10,C11,U12,C20,C22,U30; ribo A23; rest 2'-OMe; 3' idT) [T59 vrt21] yielded a Kd [4, 8] of 27 nM.

ACGAACUGCCCUUUAUACGCACAGACGU (ssRNA, 2'-F C and U; 2'-OH A and G; 3' idT) [T65]: no binding ([3]; tags: factor VIII free).

For ACGAACUGCCCUCGAUCGACGCACAGACGU (ssRNA, mAmCmGmAmAmCfUmGfCfCfCmUmCmGmAmUmCmGmAfCmGfCmAmCmAmGmAmCmGfU-idT) [T59 vrt5], the Kd [7] was 260 nM.

ACGAACUCCCUCGAUUAUUCGACGACAGACGU (ssRNA, 2'-F C and U; 2'-OH A and G; 3' idT) [T62]: no binding ([3]; tags: factor VIII free).

ACGAACUGCCCCGCACAGACGU (ssRNA, 2'-F C and U; 2'-OH A and G; 3' idT) [T61]: no binding ([3]; tags: factor VIII free).

ACGAACUGCCCUCGAUCGACGCACAGACGU (ssRNA, 2'-F C and U; 2'-OH A and G; 3' idT) [T59] showed a Kd [1] of 8.8 nM.
